From paper PMC13071878 (2026) come the findings set out here.

Some results are limits rather than exact numbers.

The assay addresses human angiotensin-converting enzyme 2, extracellular catalytic domain, produced in mammalian cells … (human, UniProt Q9BYF1 19-615). Description: FACS. In general terms: Flow cytometry measures light scatter and fluorescence of single cells or particles in a stream.

human angiotensin-converting enzyme 2, extracellular catalytic domain, produced in mammalian cells …, sequence (Q9BYF1 19-615): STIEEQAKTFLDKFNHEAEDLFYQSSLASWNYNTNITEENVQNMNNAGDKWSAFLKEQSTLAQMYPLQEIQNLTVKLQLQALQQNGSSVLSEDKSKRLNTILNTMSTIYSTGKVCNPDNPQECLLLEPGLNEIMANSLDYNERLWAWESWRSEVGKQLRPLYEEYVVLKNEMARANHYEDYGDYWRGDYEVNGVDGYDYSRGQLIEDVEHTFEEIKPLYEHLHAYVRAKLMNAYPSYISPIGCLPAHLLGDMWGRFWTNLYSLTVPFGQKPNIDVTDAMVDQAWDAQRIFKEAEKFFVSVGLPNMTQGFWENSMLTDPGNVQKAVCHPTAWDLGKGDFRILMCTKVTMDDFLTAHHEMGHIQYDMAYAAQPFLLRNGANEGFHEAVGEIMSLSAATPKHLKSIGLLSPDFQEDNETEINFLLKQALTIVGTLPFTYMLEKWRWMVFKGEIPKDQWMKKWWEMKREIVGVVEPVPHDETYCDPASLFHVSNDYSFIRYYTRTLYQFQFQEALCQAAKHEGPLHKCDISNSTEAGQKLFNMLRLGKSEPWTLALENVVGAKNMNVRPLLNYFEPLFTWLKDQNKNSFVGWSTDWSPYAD

B1: GR1.9 (N8A), yeast-displayed alanine mutant of GR1.4 (peptide)
peptide: ACEPLGYALFLCSG
In general, Kd refers to the equilibrium constant for the complex coming apart. With B1, the Kd was above 1000 nM.
